According to paper PMC2655673:

Assays:
Experiment in all cases: SFM DNA tethering
[1] = target: RAD50;NBS1 (Homo sapiens;Homo sapiens) (UniProt Q92878+O60934)
[2] = target: RAD50;MRE11 (Homo sapiens;Homo sapiens) (UniProt Q92878+P49959)
[3] = target: RAD50;MRE11;NBS1 (Homo sapiens;Homo sapiens;Homo sapiens) (UniProt Q92878+P49959+O60934)

**Q.** Which binding signal (% DNA in tethered complexes) [1] does the source give for 3.0-kb linear DNA fragment here?
**A.** 30

**Q.** And the binding signal (% DNA in tethered complexes) [2]?
**A.** 16

**Q.** And the binding signal (% DNA in tethered complexes) [3]?
**A.** 20
